What is called stoichiometry N is the number of molecules, sites or subunits per partner or assembly.

Values joined by “and” are separate entries in the source; they are usually repeats but may differ in a detail not shown here. Equal values may be shown once.

The values below come from paper PMC6881174.

The target of the test is TRIM5α from African green monkey, L81F (African green monkey). Nature of the test: cryo-EM structure.

As to “TRIM5α from African green monkey, L81F (natural protein)”, the stoichiometry N was 3 and 2.
